Here are results for five substances from patent publication US20120264693A1, “COMPOUNDS ACTING AS PEPTIDE GAP JUNCTION MODULATORS, AND USES THEREOF” (Zealand Pharma A/S, priority 2009, published 2012).

The target in test [1] is T1, Cx43 (Homo sapiens, UniProt P17302).
T1 construct: expressed in transfected cells; host or cells: N2a (mouse neuroblastoma) cells, transiently transfected
Kind of test: Octanol-induced uncoupling, dual-cell patch clamp, junctional conductance (Gj) in Cx43-expressing N2A cell pairs. The format is cell-based, mouse. The following applies: for cells remaining coupled ten minutes after the onset of octanol superfusion: peptide 100 μM in pipette, 1.5 mM octanol, 10 min; for effect on octanol-induced decrease of Gj compared to control (in words): 1.5 mM octanol perfusion. The protocol:
FIG. 2. Time course of octanol-induced uncoupling in human Cx43-expressing N2A cells. Cell pairs were recorded with patch pipettes that contained either ZP2778 (0.1 mM; upper curve/trace), or only the internal pipette filling solution (control; lower curve/trace). Experiments were conducted using the dual-cell patch clamp technique, and 1.5 mM octanol perfusion was started at Time=0.
(§1) Patch clamp experiments were conducted in N2a cells transiently transfected with Cx43. In all cases, the dual-whole-cell voltage clamp technique was used to record gap junction currents. Specifics for cell culture, transfection and recordings are described in Shibayama et al. (Identification of a novel peptide that interferes with the chemical regulation of connexin 43. Circ Res 2006 98:1365-72). Octanol superfusion was initiated 5 minutes after patch break and continued for 10 minutes. Concentration of octanol was 1.5 mM in all experiments. Peptides were diluted in the internal pipette solution to a final concentration of 100 μM. A total of 20 experiments were carried out where octanol-induced uncoupling was tested in the absence of peptides. These experiments were averaged, and data used as control for comparison with those series where a given peptide was assessed. Patch clamp experiments were also conducted (cf. FIG. 6 herein) using ventricular myocytes from neonatal Sprague-Dawley rats (rats supplied by Charles River, Mass. USA), isolated and cultured according to Rohr et al. (see Circ. Res. 1991; 68: 114-130, and J. Cardiovasc. Electrophysiol. 1995; 6: 551-568).
Junctional conductance (Gj) was measured in N2a cell pairs expressing Cx43. Patch pipettes were filled with an internal solution containing the specific peptide under study, and the time course and extent of octanol-induced uncoupling was compared to that observed in the absence of the peptide. FIGS. 2-5 show average measurements of junctional conductance and percent of coupled cells recorded at various times after the onset of octanol superfusion for the cyclized peptides ZP2769, ZP2771, ZP2778, ZP2782 and for the dissolution medium (internal pipette solution) used as control. […] For ZP2778 (FIG. 2), 60% of the cells remained coupled, while 20% remained coupled for ZP2782 (FIG. 4).
(In general: Patch clamp records ionic current or voltage across a cell membrane.)

In test [2] the target is T1, Cx43. Put plainly: Acidification-induced uncoupling (pH 6.2), dual-cell patch clamp in Cx43-expressing N2A cell pairs. The following applies: peptide 0.1 mM in patch pipette, N2A cells. The protocol: FIG. 6. Upper graph: Time course of acidification-induced uncoupling in human Cx43-expressing N2A cells. Cell pairs were recorded with patch pipettes that contained either ZP2771 (0.1 mM; upper curve), or only the internal pipette filling solution buffered to pH 6.2 (control; lower curve). Experiments were conducted using the dual-cell patch clamp technique.
as §1, with “Patch clamp experiments were also conducted (cf. FIG. 6 herein) using ventricular myocytes from neonatal Sprague-Dawley rats (rats supplied by Charles River, Mass. USA), isolated and cultured according to Rohr et al. (see Circ. Res. 1991; 68: 114-130, and J. Cardiovasc. Electrophysiol. 1995; 6: 551-568).” left out

Test [3] deals with recombinant rat Cx43CT (Rattus norvegicus, UniProt P08050). Put plainly: Surface plasmon resonance (SPR) binding of peptides to immobilised Cx43CT. The following applies: for binding to the Cx43CT (in words): SPR, FIG. 1 / Table 2; for (ru * 100)/Mw: response normalised to molecular weight. An excerpt: FIG. 1. SPR results for compounds (peptides) ZP2769 and ZP2771. Recombinant rat Cx43CT was covalently bound to a carboxylmethyl dextran matrix and used as ligand. Peptides were presented to the bound ligand, and the amplitude of the response was subtracted from that obtained from a control chamber with no ligand. If no change in angle of resonance was observed, this was taken as an indication of absence of binding. The amplitude of the change in angle of resonance (expressed as “response units”) is a function of the molecular mass of the analyte, and for comparison purposes response units were therefore normalized taking into account the molecular weight of the tested compound. Change in angle of incidence of resonance (in “resonance units”) was plotted against time after onset of cyclic peptide exposure. The various curves correspond to different applied concentrations of the peptide in question, as follows:
Compounds of the present invention may be tested for binding to the carboxyl terminal domain of Cx43 using Surface Plasmon Resonance (“SPR”). SPR is a technique that was used to identify the original RXPE sequence (Shibayama et al., “Identification of a Novel Peptide that Interferes with the Chemical Regulation of Connexin-43,” Circ. Res. 98:1365-72 (2006)). The concentration of the compound relative to the amplitude of the response in arbitrary units is measured.
Recombinant Cx43CT is covalently bound to a carboxylmethyl dextran matrix (Salemon et al., “Surface Plasmon Resonance Spectroscopy as a Tool for Investigating the Biochemical and Biophysical Properties of Membrane Protein Systems. II: Applications to Biological Systems,” Biochim. Biophys. Acta 1331(2):131-152 (1997)). Specific peptide compounds are presented and, when feasible, dissociation constants (KD) are calculated from the time course of binding and unbinding of the ligand, using a 1:1 (Langmuir) association and dissociation kinetic model (Biacore software package). In both phases (association and dissociation), the first 5-8 seconds of recording are not included in the fit, to avoid artifacts resulting from peptide distribution within the flow cells (Lang et al., “Surface Plasmon Resonance as a Method to Study the Kinetics and Amplitude of Protein-protein Binding,” in Practical Methods in Cardiovascular Research 936-947 (Stefan Dhein, Friedrich Wilhelm Mohr & Mario Delmar eds., 2005). In the present experiments recombinant rat Cx43CT was covalently bound to a carboxylmethyl-dextran matrix and used as ligand.
Examples of the cyclic peptide compounds of the present invention were presented to the bound ligand, and the amplitude of the response was subtracted from that obtained from a control chamber with no ligand. No change in angle of resonance was taken as an indication of absence of binding. The amplitude of the change in angle of resonance (expressed as “response units”) is a function of the molecular mass of the analyte and for comparison purposes response units were normalized taking account of the molecular weight of the tested compound. Change in angle of incidence of resonance (in “resonance units”) was plotted against time after onset of cyclic peptide exposure.
SPR allows for assessment of ligand-analyte binding in real time, and was used for characterization of two of the cyclic peptide compounds of the present invention. Cx43CT was covalently bound to the matrix of a sensor chip. […] In FIG. 1, the change in angle of incidence of resonance (in “resonance units”) is plotted against time after onset of cyclic peptide exposure. Different concentrations were applied, as indicated.
On the technique in general: SPR reads the build-up and loss of mass on a sensor chip optically.

In test [4] the test system is neonatal rat ventricular cardiac myocytes. Kind of test: Acidification-induced uncoupling (pH 6.2), dual-cell patch clamp in neonatal rat ventricular cardiac myocytes. The following applies: peptide 0.1 mM buffered to pH 6.2. Format: cell-based. As for the experimental part:
Lower graph: Time course of acidification-induced uncoupling in neonatal rat ventricular cardiac myocytes. Cell pairs were recorded with patch pipettes that contained (i) ZP2771 (0.1 mM, buffered to pH 6.2; uppermost curve; filled square symbols), (ii) linear peptide RRPPYR (0.1 mM buffered to pH 6.2; middle curve; filled triangle symbols), or (iii) only the internal pipette filling solution buffered to pH 6.2 (lowermost curve; filled circle symbols). Experiments were conducted using the dual-cell patch clamp technique.
as §1

Where [5] appears, read: peptide 0.1 mM in patch pipette.

T1 sequence (P17302 2-382 limits assumed): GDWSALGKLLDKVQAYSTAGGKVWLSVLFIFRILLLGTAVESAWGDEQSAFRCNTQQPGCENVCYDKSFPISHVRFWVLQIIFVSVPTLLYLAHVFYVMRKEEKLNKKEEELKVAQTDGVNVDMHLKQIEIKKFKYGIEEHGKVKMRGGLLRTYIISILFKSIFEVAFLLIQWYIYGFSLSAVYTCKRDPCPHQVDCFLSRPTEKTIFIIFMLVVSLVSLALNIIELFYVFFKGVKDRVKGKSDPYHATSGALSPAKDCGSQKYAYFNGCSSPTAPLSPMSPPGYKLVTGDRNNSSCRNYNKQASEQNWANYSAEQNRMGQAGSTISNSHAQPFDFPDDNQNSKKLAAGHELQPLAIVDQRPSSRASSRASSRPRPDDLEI
Chain of recombinant rat Cx43CT (P08050 229-382 limits assumed): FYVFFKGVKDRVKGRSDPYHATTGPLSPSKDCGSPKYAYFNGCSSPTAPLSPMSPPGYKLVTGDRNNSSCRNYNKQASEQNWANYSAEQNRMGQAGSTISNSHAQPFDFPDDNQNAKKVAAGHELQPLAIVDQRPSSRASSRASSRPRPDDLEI

Regarding cyclo(RRPPWN) [ZP2782], in test [1], the “cells remaining coupled ten minutes after the onset of octanol superfusion” value (“cells remaining coupled ten minutes” for short) is reported as 20%. Further, the “effect on octanol-induced decrease of Gj compared to control (in words)” value (from here on “effect on octanol-induced decrease of Gj”) in test [1] (setting [5]) was “reduction in the decrease of Gj”.
With cyclo(RRPPYN) [ZP2778], the “cells remaining coupled ten minutes” value in test [1] was determined as 60%. In addition, in test [1] (setting [5]), the “effect on octanol-induced decrease of Gj” value is reported as “significantly (p<0.05) prevented the decrease of Gj”.
As to Cyclo(RRPPYRQ) (cyclic) [ZP2771], the “Gj fifteen minutes (900 sec) after patch break” value in test [2] is given as “approximately 0.49”. In addition, the “effect on acidification-induced decrease of Gj compared to control (in words)” value in test [2] is on record as “significantly (p=0.002) prevented the decrease of Gj”. The “cells remaining coupled ten minutes” value in test [1] is given as “all cells remained coupled”. Moreover, in test [1] (setting [5]), the “effect on octanol-induced decrease of Gj” value is listed as “significantly (p<0.05) prevented the decrease of Gj”. The “Gj at the end of the experiment” value in test [1] (peptide 0.1 mM in patch pipette, after 10 minutes of 1.5 mM octanol perfusion) is “approximately 0.65”. Besides, the “binding to the Cx43CT (in words)” value in test [3] is “significant binding”. For the same substance, the “Resonance Units (ru)” value in test [3] (peptide conc 0.008 mM) is listed as 27.6 ru; in test [3] (peptide conc 0.016 mM), 58.1 ru; in test [3] (peptide conc 0.031 mM) it was 95.8 ru; in test [3] (peptide conc 0.063 mM), 192.4 ru; in test [3] (peptide conc 0.125 mM), 323.6 ru; in test [3] (peptide conc 0.250 mM), 574.0 ru. Moreover, the entries for the “Resonance Units (ru)” value in test [3] (peptide conc 0.500 mM) and in test [3] (peptide conc 1.000 mM) were 896.0 ru and 1253.0 ru, respectively. The “(ru * 100)/Mw” value in test [3] (peptide conc 0.008 mM) was 2.89; in test [3] (peptide conc 0.016 mM) it was 6.09; in test [3] (peptide conc 0.031 mM), 10.05; in test [3] (peptide conc 0.063 mM) it was 20.18; in test [3] (peptide conc 0.125 mM) it was 33.94; in test [3] (peptide conc 0.250 mM), 60.20. The “(ru * 100)/Mw” value in test [3] (peptide conc 0.500 mM) is 93.97; in test [3] (peptide conc 1.000 mM), 131.41. In test [4], the “Gj fifteen minutes after patch break” value is on record as “approximately 0.47”. The “effect on acidification-induced decrease of Gj compared to linear peptide and control (in words)” value in test [4] is recorded as “significantly (p=0.006) prevented the decrease of Gj”.
Take cyclo(RRPPYQ) [ZP2769]: in test [1], the “cells remaining coupled ten minutes” value is reported as “all cells remained coupled”. The “effect on octanol-induced decrease of Gj” value in test [1] (setting [5]) is reported as “marked reduction in the decrease of Gj”. Besides, in test [3], the “binding to the Cx43CT (in words)” value was “significant binding”. Moreover, the “Resonance Units (ru)” value in test [3] (peptide conc 0.063 mM) is 18.6 ru; in test [3] (peptide conc 0.125 mM) it was 29.6 ru; in test [3] (peptide conc 0.250 mM), 55.8 ru; in test [3] (peptide conc 0.500 mM), 101.9 ru; in test [3] (peptide conc 1.000 mM), 196.2 ru. Also, the “(ru * 100)/Mw” value in test [3] (peptide conc 0.063 mM) is 2.33; in test [3] (peptide conc 0.125 mM), 3.71; in test [3] (peptide conc 0.250 mM), 6.99; in test [3] (peptide conc 0.500 mM) it was 12.77; in test [3] (peptide conc 1.000 mM), 24.59.
On to RRPPYR [reference compound], for which the “Gj fifteen minutes after patch break” value in test [4] is given as “approximately 0.17”.
